B1: KaiB3, recombinant, GST tag cleaved off (natural protein, Synechocystis sp. strain PCC 6803, UniProt Q55819 1-102, looked up)
chain: MDMNRIVLRLYITGNSVRSQQAIANIYRICQEDLGDQYNVEIIDVLEQPQRAEEEKIMVTPTLIKQLPPPLQRIIGDMSNTEKVLLGLDIVPEGLQVRLPED
notes: Eluted as a monomer and as a tetramer; the two fractions were tested separately in the ATPase assay; also called KaiB3 monomer; KaiB3 tetramer
B2: KaiB1, recombinant, GST tag cleaved off (natural protein, Synechocystis sp. strain PCC 6803, UniProt P74645 1-105, looked up)
chain: MSPFKKTYVLKLYVAGNTPNSVRALKMLKNILEQEFQGVYALKVIDVLKNPQLAEEDKILATPTLAKILPPPVRKIIGDLSDREKVLIGLDLLYDEIREREAEDQ
notes: Eluted only as a tetramer from size exclusion chromatography; also called KaiB1 tetramer

Columns and labels:
[1] = molecular target: KaiC3 wild-type protein fused to an N-terminal Strep-tag (Synechocystis sp. strain PCC 6803); experiment: SEC; Strep-KaiC3 on Sephacryl S300 HR HiPrep 16/60; 20 or 50 mM Tris-HCl (pH 8.0), 150 mM NaCl, 2 mM DTT, 1 mM ATP, 5 mM MgCl2
[2] = molecular target: the molecule itself; experiment: SEC; KaiB1 and KaiB3 on Sephacryl S200 HR HiPrep 16/60 or Superdex 200 Increase 10/30 GL; 20 or 50 mM Tris-HCl (pH 8.0), 150 mM NaCl, 2 mM DTT

| Molecule | stoichiometry N [1] | stoichiometry N [2] |
| --- | --- | --- |
| KaiC3 wild-type protein fused to an N-terminal Strep-tag (enzyme) | 6 | – |
| B1 | – | 4 |
| B2 | – | 4 |
